From paper PMC11033958 come the findings set out here.

The target in assay [1] is ACKR3_RlucII (N-terminally FLAG-tagged human ACKR3, residues 2–362, with a C-terminal fusion of Renilla luciferase II) (human) (UniProt P25106).
The target of assay [2] is purified ACKR3:CXCL12_(LRHQ) complex, ACKR3 phosphorylated in vitro by GRK5 (UniProt P25106). The experiment in a line: pull-down; 1.1 µM purified ACKR3:LRHQ complex phosphorylated by 1.1 µM GRK2 or GRK5 (1 mM ATP, 20 min, room temperature), 2.2 µM purified β-arrestin1 or 2 added for 40 min; captured on M2 anti-FLAG resin at 4°C, washed in 50 mM HEPES pH 7.5, 150 mM NaCl, LMNG/CHS, eluted with 3×FLAG peptide; SDS-PAGE band densities, arrestin as percent of ACKR3.

In assay [3] the target is purified ACKR3:CXCL12_(LRHQ) complex, ACKR3 phosphorylated in vitro by GRK2 (UniProt P25106). The description is as above.

Sequence of CXCL12 (P48061 22-93): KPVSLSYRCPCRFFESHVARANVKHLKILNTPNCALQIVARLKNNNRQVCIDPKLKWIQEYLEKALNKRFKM

In assay [1], “CXCL12 (from UniProt P48061 22-93) (ligand)” registered a CXCL12 removed from the medium (25 nM CXCL12, 16 hours at 37°C) by WT HEK293A cells expressing ACKR3 RlucII, remaining chemokine by ELISA, against cells with empty vector of 64%.
“bovine β-arrestin1 (from UniProt P17870 1-418) (natural protein)” had a percent of the receptor complexed with β-arrestin in assay [2] of 49%.
Consider “bovine β-arrestin2 (1–393) (from UniProt P32120 1-393) (domain or fragment)”, for which the results for the percent of the receptor complexed with β-arrestin in assay [3] and in assay [2] were 14% and 73%, respectively.
